In patent publication US20140004107A1 (published 2014):

Key:
[1] = molecular target: T1, cynomolgus monkey ST2 on cynomolgus CD4+ T cells (cynomolgus monkey, UniProt Q01638 19-556 (human entry)); assay: cell-based or functional assay
T1 chain: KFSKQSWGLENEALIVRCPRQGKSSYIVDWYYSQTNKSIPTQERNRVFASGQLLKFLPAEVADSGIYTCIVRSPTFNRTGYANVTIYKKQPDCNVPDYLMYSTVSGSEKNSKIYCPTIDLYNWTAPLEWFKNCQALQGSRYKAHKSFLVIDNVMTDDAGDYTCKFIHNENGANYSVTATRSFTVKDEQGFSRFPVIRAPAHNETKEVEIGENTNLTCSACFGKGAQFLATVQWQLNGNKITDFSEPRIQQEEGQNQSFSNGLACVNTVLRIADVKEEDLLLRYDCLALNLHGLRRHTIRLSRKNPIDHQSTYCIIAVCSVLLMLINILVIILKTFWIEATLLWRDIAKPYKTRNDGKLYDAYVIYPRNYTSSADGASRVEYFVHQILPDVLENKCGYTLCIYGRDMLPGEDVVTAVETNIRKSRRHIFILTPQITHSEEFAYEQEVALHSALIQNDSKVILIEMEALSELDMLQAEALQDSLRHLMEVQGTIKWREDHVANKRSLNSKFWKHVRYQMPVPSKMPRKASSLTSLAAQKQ

[2] = molecular target: T2, biotinylated human ST2-Fc (human, UniProt Q01638 19-331, biotinylated); assay: AlphaScreen, IL-33 mediated association of biotinylated human ST2-Fc with human AcP-FH, antibody at 12.5 ug/ml
T2 construct: also called ST2-Fc fusion protein; not shown: human antibody Fc domain
T2 sequence: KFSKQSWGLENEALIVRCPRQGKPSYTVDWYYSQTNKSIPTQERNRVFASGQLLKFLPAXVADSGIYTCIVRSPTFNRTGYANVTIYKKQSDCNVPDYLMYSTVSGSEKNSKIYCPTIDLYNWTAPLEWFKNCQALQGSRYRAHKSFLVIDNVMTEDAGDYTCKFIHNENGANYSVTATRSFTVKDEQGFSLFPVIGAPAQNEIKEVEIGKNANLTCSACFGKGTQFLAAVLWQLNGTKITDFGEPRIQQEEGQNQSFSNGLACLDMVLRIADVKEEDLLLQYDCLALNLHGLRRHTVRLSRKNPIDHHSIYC
Protocol: In the second assay, antibodies were evaluated for the ability to inhibit the IL-33 mediated association of ST2 with the co-receptor AcP. […] The ST2/AcP AlphaScreen was conducted in 8 ul reactions in a 384 well optiplate (Perkin Elmer). […] After the addition of all assay components the plates were incubated overnight in the dark at room temperature. The next day the plates were read on a 2103 Envision multilable reader (Perkin Elmer) using the same parameters as above for the first assay.

human ST2 (SPR analyte) [3] = molecular target: T3, human ST2 (SPR analyte) (human, UniProt Q01638 19-322); assay: SPR Biacore 4000, association at pH 7.4, dissociation at pH 5.5 (estimated kd)
T3 construct: The ST2 reagent injected in SPR; leader is 1-18; also called hu ST2
T3 sequence: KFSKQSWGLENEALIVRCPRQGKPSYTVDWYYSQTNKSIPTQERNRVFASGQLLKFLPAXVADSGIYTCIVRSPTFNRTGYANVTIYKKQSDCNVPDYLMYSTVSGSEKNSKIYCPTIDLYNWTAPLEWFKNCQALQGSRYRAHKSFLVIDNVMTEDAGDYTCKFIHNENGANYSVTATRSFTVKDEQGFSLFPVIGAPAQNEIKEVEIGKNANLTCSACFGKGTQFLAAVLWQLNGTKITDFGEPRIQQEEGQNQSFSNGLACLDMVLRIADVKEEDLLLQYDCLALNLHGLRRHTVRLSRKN
Protocol: (§1) The association (5 min) rates at pH 7.4 and dissociation (10 min) rates at pH 5.5 and 7.4 were monitored at a flow rate of 30 uL/min. The reference subtracted data was fit to a 1:1 model in Scrubber.

[4] = molecular target: T4, human ST2 on human primary cells (human, UniProt Q01638 19-556); assay: cell-based or functional assay
T4 sequence: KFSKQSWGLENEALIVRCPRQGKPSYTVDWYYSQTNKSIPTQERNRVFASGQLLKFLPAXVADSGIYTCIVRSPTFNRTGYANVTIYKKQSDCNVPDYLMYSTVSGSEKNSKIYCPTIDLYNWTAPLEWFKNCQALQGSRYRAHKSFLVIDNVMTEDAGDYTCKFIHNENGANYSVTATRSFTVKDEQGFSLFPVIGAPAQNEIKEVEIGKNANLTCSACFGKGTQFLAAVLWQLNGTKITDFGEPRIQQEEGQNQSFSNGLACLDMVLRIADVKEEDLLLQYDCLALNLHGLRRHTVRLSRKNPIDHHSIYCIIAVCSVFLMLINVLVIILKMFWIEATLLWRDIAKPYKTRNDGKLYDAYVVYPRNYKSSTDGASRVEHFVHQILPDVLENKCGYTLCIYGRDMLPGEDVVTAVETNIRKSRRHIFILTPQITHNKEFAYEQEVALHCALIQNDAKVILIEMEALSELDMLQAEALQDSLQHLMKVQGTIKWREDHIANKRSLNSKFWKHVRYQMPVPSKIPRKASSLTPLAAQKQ

[5] = molecular target: T5, soluble human ST2-FLAG His (human, UniProt Q01638 19-322, limits assumed); assay: AlphaScreen, biotinylated human IL-33 with human ST2-FH, antibody at 12.5 ug/ml
T5 construct: also called human ST2-FH; 6xhistidine tagged human ST2; not shown: FLAG and 6x histidine tags
T5 sequence: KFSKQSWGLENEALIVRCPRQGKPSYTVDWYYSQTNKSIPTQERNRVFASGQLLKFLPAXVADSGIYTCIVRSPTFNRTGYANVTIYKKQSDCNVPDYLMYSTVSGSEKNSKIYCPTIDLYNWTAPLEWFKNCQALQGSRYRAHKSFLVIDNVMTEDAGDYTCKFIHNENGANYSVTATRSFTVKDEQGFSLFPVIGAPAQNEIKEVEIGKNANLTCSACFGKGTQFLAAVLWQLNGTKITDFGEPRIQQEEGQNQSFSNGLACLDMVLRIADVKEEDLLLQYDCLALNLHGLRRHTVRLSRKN

[6] = molecular target: T4, human ST2 on human primary cells; assay: cell-based or functional assay; remark: listed apart in the source
[7] = molecular target: T4, human ST2 on human primary cells; assay: cell-based or functional assay; remark: listed apart in the source
[8] = molecular target: T6, cynomolgus monkey ST2 (SPR analyte) (cynomolgus monkey, UniProt Q01638 19-322 (human entry)); assay: SPR Biacore 3000, captured antibody, ST2 analyte, 25 C
T6 construct: The cyno ST2 reagent injected in SPR; leader is 1-18; also called cy ST2
T6 chain: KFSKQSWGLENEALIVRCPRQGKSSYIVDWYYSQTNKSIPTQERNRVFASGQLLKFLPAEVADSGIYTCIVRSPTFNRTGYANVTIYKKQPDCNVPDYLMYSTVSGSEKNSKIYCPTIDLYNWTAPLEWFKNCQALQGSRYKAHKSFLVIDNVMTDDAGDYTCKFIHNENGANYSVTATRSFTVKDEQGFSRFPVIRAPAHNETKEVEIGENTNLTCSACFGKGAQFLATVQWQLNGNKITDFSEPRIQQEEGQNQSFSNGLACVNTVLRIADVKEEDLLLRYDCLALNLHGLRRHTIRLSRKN

human ST2 (SPR analyte) [9] = molecular target: T3, human ST2 (SPR analyte); assay: as above
human ST2 (SPR analyte) [10] = molecular target: T3, human ST2 (SPR analyte); assay: SPR Biacore 4000, association at pH 7.4, dissociation at pH 7.4 (estimated kd)
Protocol: as §1

human ST2 (SPR analyte) [11] = molecular target: T3, human ST2 (SPR analyte); assay: SPR Biacore 4000, kd at pH 5.5 against kd at pH 7.4
Protocol: as §1

B1: Ab2 (antibody, human IgG2, kappa, V domains shown)
VH: EVQLVQSGAEVKKPGESLKISCKGSGYSFTNYWIGWVRQMPGKGLEWMGIIYPGNSDTRFSPSFQGQVTISADKSITTAYLQWSSLKASDTAMYYCARHGTSSDYYGLDVWGQGTTVTVSS
VL: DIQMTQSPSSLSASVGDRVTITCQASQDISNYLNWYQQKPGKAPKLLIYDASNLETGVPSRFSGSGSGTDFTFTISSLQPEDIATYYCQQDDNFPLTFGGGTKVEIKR
notes: fully human anti-ST2 antibody
With B1 as the binder, how does the “IC-50, cynomolgus monkey CD4+ T cell IFNγ release assay (IL-33, IL-2 and IL-12p70 stimulation)” value [1] read?
Its value is 79.5 pM.

And the “% inhib ST2-AcP AS 12.5 ug/ml” value [2]?
Its value is 96.4%.

What about the koff (human ST2 (SPR analyte) [3]) of the same binder?
The koff was 0.000238 s⁻¹.

And the “IC50 of inhibition of human IL-33-induced IL-5 production from human CD4+ T cells” value [4]?
The value was 5.25 nM.

What about the “% inhib ST2-IL33 AS 12.5 ug/ml” value [5] of the same binder?
Its value is 99.2%.

What about the “IC50 of inhibition of IL-33-dependent IFN-γ response of human NK cells (IL-33 10 ng/mL plus IL-12)” value [6] of the same binder?
The value was 0.0412 µg/mL.

What about the “IC-50, human eosinophil IL-8 release assay (IL-33 and IL-3 stimulation)” value [7] of the same binder?
Its value is 52.8 pM.

What about the Kd [8] of the same binder?
The Kd was 0.0322 nM.

And the koff [8]?
The koff was 1.16e-05 s⁻¹.

What about the kon [8] of the same binder?
Its kon is 360000 M⁻¹ s⁻¹.

What about the Kd (human ST2 (SPR analyte) [9]) of the same binder?
The Kd was 0.0339 nM.

What about the koff (human ST2 (SPR analyte) [9]) of the same binder?
Its koff is 1.13e-05 s⁻¹.

What about the kon (human ST2 (SPR analyte) [9]) of the same binder?
Its kon is 333000 M⁻¹ s⁻¹.

And the koff (human ST2 (SPR analyte) [10])?
The koff was 2.98e-05 s⁻¹.

And the “pH 5.5/pH 7.4 koff fold change” value (human ST2 (SPR analyte) [11])?
The value was 8 fold.
